Data reported in patent US11833164B2, “Methods of treating Fabry disease in patients having a mutation in the GLA gene” (Amicus Therapeutics, Inc., priority 2019, dated 2023).
Changes are numbered by the printed parent chain. Names and notes keep the numbering of the source.

B1: L331R (protein)
chain: MQLRNPELHLGCALALRFLALVSWDIPGARALDNGLARTPTMGWLHWERFMCNLDCQEEPDSCISEKLFMEMAELMVSEGWKDAGYEYLCIDDCWMAPQRDSEGRLQADPQRFPHGIRQLANYVHSKGLKLGIYADVGNKTCAGFPGSFGYYDIDAQTFADWGVDLLKFDGCYCDSLENLADGYKHMSLALNRTGRSIVYSCEWPLYMWPFQKPNYTEIRQYCNHWRNFADIDDSWKSIKSILDWTSFNQERIVDVAGPGGWNDPDMLVIGNFGLSWNQQVTQMALWAIMAAPLFMSNDLRHISPQAKALLQDKDVIAINQDPLGKQGYQRRQGDNFEVWERPLSGLAWAVAMINRQEIGGPRSYTIAVASLGKGVACNPACFITQLLPVKRKLGFYEWTSRLRSHINPTGTVLLQLENTMQMSLKDLL
B2: D335A (protein)
chain: B1 chain with R331L, D335A
B3: Q333E (protein)
chain: B1 chain with R331L, Q333E
B4: Q333L (protein)
chain: B1 chain with R331L, Q333L
B5: G334R (protein)
chain: B1 chain with R331L, G334R
B6: L331V (protein)
chain: B1 chain with R331V
B7: Q333P (protein)
chain: B1 chain with R331L, Q333P
B8: D335E (protein)
chain: B1 chain with R331L, D335E
B9: G334V (protein)
chain: B1 chain with R331L, G334V
B10: R332G (protein)
chain: B1 chain with R331L, R332G
B11: D335Y (protein)
chain: B1 chain with R331L, D335Y
B12: D335V (protein)
chain: B1 chain with R331L, D335V
B13: R332T (protein)
chain: B1 chain with R331L, R332T
B14: D335G (protein)
chain: B1 chain with R331L, D335G
B15: R332I (protein)
chain: B1 chain with R331L, R332I
B16: R332S (protein)
chain: B1 chain with R331L, R332S

test system: mutant form of α-Gal A expressed in HEK-293 cells; experiment: HEK assay (GLP HEK / Migalastat Amenability Assay): α-Gal A activity in lysates of transiently transfected HEK-293 cells incubated with or without 10 μM migalastat; assay type: cell-based, human; settings: 10 μM migalastat versus baseline
Procedure, shortened: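 HEK-293 cells transiently transfected with mutant α-Gal A and incubated with or without 10 μM migalastat; lysate activity given as nmol free 4-MU released per mg protein per hour. Values are mean±SEM.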

| Molecule | Absolute increase (% WT) | Relative increase |
| --- | --- | --- |
| B1 | 23.3 % WT | 1.6 |
| B2 | 27.7 % WT | 1.6 |
| B3 | 23.5 % WT | 1.3 |
| B4 | 24.7 % WT | 1.3 |
| B5 | 17.5 % WT | 1.2 |
| B6 | 28.0 % WT | 1.3 |
| B7 | 31.0 % WT | 1.9 |
| B8 | 17.7 % WT | 1.3 |
| B9 | 13.7 % WT | 1.2 |
| B10 | 23.4 % WT | 1.3 |
| B11 | 11.0 % WT | 1.3 |
| B12 | 19.4 % WT | 2.1 |
| B13 | 36.2 % WT | 1.5 |
| B14 | 15.7 % WT | 1.3 |
| B15 | 43.2 % WT | 1.7 |
| B16 | 20.5 % WT | 1.2 |

same assay, conditions: absence of migalastat; percentage of baseline wild-type α-Gal A activity; mean ± SEM

| Molecule | Baseline α-Gal A activity (% WT) |
| --- | --- |
| B1 | 33.2 ± 1.5 % WT |
| B2 | 57.9 ± 3 % WT |
| B3 | 77.8 ± 5.3 % WT |
| B4 | 68.6 ± 2.9 % WT |
| B5 | 58.9 ± 4.6 % WT |
| B6 | 89.4 ± 4.5 % WT |
| B7 | 30.3 ± 1.7 % WT |
| B8 | 68.7 ± 4.8 % WT |
| B9 | 68.4 ± 3.2 % WT |
| B10 | 78.8 ± 2.7 % WT |
| B11 | 43 ± 1.7 % WT |
| B12 | 18.1 ± 0.6 % WT |
| B13 | 73.3 ± 2.9 % WT |
| B14 | 51.3 ± 2.8 % WT |
| B15 | 63.3 ± 4.5 % WT |
| B16 | 87.6 ± 6.6 % WT |

same assay, conditions: lysates of HEK-293 cells transiently transfected with the mutant form, incubated 5 days in absence of migalastat; mean ± SEM

| Molecule | Baseline α-Gal A activity |
| --- | --- |
| B1 | 9725 ± 634 nmol/mg/h |
| B2 | 21055 ± 1662 nmol/mg/h |
| B3 | 30291 ± 2094 nmol/mg/h |
| B4 | 25450 ± 2094 nmol/mg/h |
| B5 | 25886 ± 3237 nmol/mg/h |
| B6 | 25163 ± 801 nmol/mg/h |
| B7 | 11819 ± 1039 nmol/mg/h |
| B8 | 30532 ± 1962 nmol/mg/h |
| B9 | 31991 ± 2390 nmol/mg/h |
| B10 | 33043 ± 1431 nmol/mg/h |
| B11 | 19469 ± 982 nmol/mg/h |
| B12 | 7938 ± 336 nmol/mg/h |
| B13 | 26141 ± 1254 nmol/mg/h |
| B14 | 22766 ± 1355 nmol/mg/h |
| B15 | 24614 ± 1678 nmol/mg/h |
| B16 | 33936 ± 2528 nmol/mg/h |

same assay, conditions: lysates of HEK-293 cells transiently transfected with the mutant form, incubated 5 days with 10 μM migalastat; mean ± SEM

| Molecule | 10 μM migalastat α-Gal A activity |
| --- | --- |
| B1 | 15841 ± 639 nmol/mg/h |
| B2 | 33829 ± 4641 nmol/mg/h |
| B3 | 38709 ± 2428 nmol/mg/h |
| B4 | 33727 ± 1965 nmol/mg/h |
| B5 | 31174 ± 2016 nmol/mg/h |
| B6 | 33050 ± 967 nmol/mg/h |
| B7 | 22746 ± 1255 nmol/mg/h |
| B8 | 39124 ± 2722 nmol/mg/h |
| B9 | 38301 ± 2744 nmol/mg/h |
| B10 | 42737 ± 1959 nmol/mg/h |
| B11 | 24732 ± 2214 nmol/mg/h |
| B12 | 16557 ± 929 nmol/mg/h |
| B13 | 39363 ± 2176 nmol/mg/h |
| B14 | 30341 ± 3325 nmol/mg/h |
| B15 | 41550 ± 2461 nmol/mg/h |
| B16 | 41700 ± 2778 nmol/mg/h |

same assay, conditions: with 10 μM migalastat, 5 days; percentage of baseline wild-type α-Gal A activity; mean ± SEM

| Molecule | 10 μM migalastat α-Gal A activity (% WT) |
| --- | --- |
| B1 | 56.5 ± 3.2 % WT |
| B2 | 85.6 ± 6.9 % WT |
| B3 | 101.3 ± 7.6 % WT |
| B4 | 93.3 ± 4.1 % WT |
| B5 | 76.4 ± 2.7 % WT |
| B6 | 117.4 ± 5.6 % WT |
| B7 | 61.3 ± 3.9 % WT |
| B8 | 86.5 ± 4.5 % WT |
| B9 | 82.1 ± 3.8 % WT |
| B10 | 102.3 ± 4.6 % WT |
| B11 | 54.1 ± 3.5 % WT |
| B12 | 37.5 ± 1.6 % WT |
| B13 | 109.5 ± 4.7 % WT |
| B14 | 67 ± 5.6 % WT |
| B15 | 106.6 ± 6.4 % WT |
| B16 | 108.1 ± 8.4 % WT |
